In article PMC8850660 (2022) one finds Kd and koff data, which are given here for 2 molecules.

In assay [1] the target is T1, unphosphorylated beta subunit of the insulin receptor (IRβ), recombinant (UniProt P06213 763-1382). The assay can be described thus: SPR; in the presence of C646 (0-100 nM). (In general: In SPR one partner is held on a chip, and binding of the other changes the refractive index at the surface.)
Assay [2] addresses T1, unphosphorylated beta subunit of the …. The experiment in a line: SPR; in the presence of C646 (0-100 nM). The source holds these as a separate data set.

T1 sequence (P06213 763-1382): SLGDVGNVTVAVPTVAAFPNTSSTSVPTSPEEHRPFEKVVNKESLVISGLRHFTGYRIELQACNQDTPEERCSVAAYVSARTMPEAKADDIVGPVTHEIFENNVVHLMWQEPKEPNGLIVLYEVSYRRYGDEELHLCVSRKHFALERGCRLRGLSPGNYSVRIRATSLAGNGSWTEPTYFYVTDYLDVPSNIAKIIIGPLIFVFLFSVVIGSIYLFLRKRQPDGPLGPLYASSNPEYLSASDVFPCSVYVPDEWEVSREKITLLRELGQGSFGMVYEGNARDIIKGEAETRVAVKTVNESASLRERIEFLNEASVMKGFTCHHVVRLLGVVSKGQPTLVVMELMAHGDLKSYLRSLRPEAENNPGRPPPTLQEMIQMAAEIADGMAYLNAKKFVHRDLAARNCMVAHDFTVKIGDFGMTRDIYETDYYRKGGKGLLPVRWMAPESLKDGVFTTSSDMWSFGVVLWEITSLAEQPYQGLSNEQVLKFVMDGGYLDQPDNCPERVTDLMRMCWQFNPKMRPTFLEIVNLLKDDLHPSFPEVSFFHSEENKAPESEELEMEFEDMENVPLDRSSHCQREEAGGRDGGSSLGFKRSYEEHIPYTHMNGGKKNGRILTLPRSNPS

B1: purified IRS2 protein (insulin receptor substrate 2) (natural protein)
chain: MASAPLPGPPASAGGDGPNLNNNNNNNNHSVRKCGYLRKQKHGHKRFFVLRGPGTGGDEASAAGGSPPQPPRLEYYESEKKWRSKAGAPKRVIALDCCLNINKRADAKHKYLIALYTKDEYFAVAAENEQEQEGWYRALTDLVSEGRSGEGGSGTTGGSCSASLPGVLGGSAGAAGCDDNYGLVTPATAVYREVWQVNLKPKGLGQSKNLTGVYRLCLSARTIGFVKLNCEQPSVTLQLMNIRRCGHSDSFFFIEVGRSAVTGPGELWMQADDSVVAQNIHETILEAMKALKELFEFRPRSKSQSSGSSATHPISVPGARRHHHLVNLPPSQTGLVRRSRTDSLAATPPAAKCTSCRVRTASEGDGGAAGGAGTAGGRPMSVAGSPLSPGPVRAPLSRSHTLSAGCGGRPSKVTLAPAGGALQHSRSMSMPVAHSPPAATSPGSLSSSSGHGSGSYPLPPGSHPHLPHPLHHPQGQRPSSGSASASGSPSDPGFMSLDEYGSSPGDLRAFSSHRSNTPESIAETPPARDGSGGELYGYMSMDRPLSHCGRPYRRVSGDGAQDLDRGLRKRTYSLTTPARQRQVPQPSSASLDEYTLMRATFSGSSGRLCPSFPASSPKVAYNPYPEDYGDIEIGSHKSSSSNLGADDGYMPMTPGAALRSGGPNSCKSDDYMPMSPTSVSAPKQILQPRLAAALPPSGAAVPAPPSGVGRTFPVNGGGYKASSPAESSPEDSGYMRMWCGSKLSMENPDPKLLPNGDYLNMSPSEAGTAGTPPDFSAALRGGSEGLKGIPGHCYSSLPRSYKAPCSCSGDNDQYVLMSSPVGRILEEERLEPQATPGAGTFGAAGGSHTQPHHSAVPSSMRPSAIGGRPEGFLGQRCRAVRPTRLSLEGLQTLPSMQEYPLPTEPKSPGEYINIDFGEAGTRLSPPAPPLLASAASSSSLLSASSPASSLGSGTPGTSSDSRQRSPLSDYMNLDFSSPKSPKPSTRSGDTVGSMDGLLSPEASSPYPPLPPRPSTSPSSLQQPLPPAPGDLYRLPPASAATSQGPTAGSSMSSEPGDNGDYTEMAFGVAATPPQPIVAPPKPEGARVASPTSGLKRLSLMDQVSGVEAFLQVSQPPDPHRGAKVIRADPQGGRRRHSSETFSSTTTVTPVSPSFAHNSKRHNSASVENVSLRKSSEGSSTLGGGDEPPTSPGQAQPLVAVPPVPQARPWNPGQPGALIGCPGGSSSPMRRETSVGFQNGLNYIAIDVRGEQGSLAQSQPQPGDKNSWSRTRSLGGLLGTVGGSGASGVCGGPGTGALPSASTYASIDFLSHHLKEATVVKE
Broadly, the Kd is the free concentration of one partner at which half of the binding sites on the other are occupied at equilibrium, for simple one-to-one binding. The term koff denotes a measure of how fast the partners let go of each other. B1: in assay [1], the Kd turned out to be 7.6 pM. The koff in assay [2] came to 1.5e-06 s⁻¹.

B2: purified IRS1 protein (insulin receptor substrate 1) (natural protein)
chain: MASPPDTDGFSDVRKVGYLRKPKSMHKRFFVLRAASEAGGPARLEYYENEKKWRHKSSAPKRSIPLESCFNINKRADSKNKHLVALYTRDEHFAIAADSEAEQDSWYQALLQLHNRAKAHHDGAGGGCGGSCSGSSGVGEAGEDLSYDTGPGPAFKEVWQVILKPKGLGQTKNLIGIYRLCLTSKTISFVKLNSEAAAVVLQLMNIRRCGHSENFFFIEVGRSAVTGPGEFWMQVDDSVVAQNMHETILEAMRAMSDEFRPRSKSQSSSSCSNPISVPLRRHHLNNPPPSQVGLTRRSRTESITATSPASMVGGKPGSFRVRASSDGEGTMSRPASVDGSPVSPSTNRTHAHRHRGSSRLHPPLNHSRSIPMPSSRCSPSATSPVSLSSSSTSGHGSTSDCLFPRRSSASVSGSPSDGGFISSDEYGSSPCDFRSSFRSVTPDSLGHTPPARGEEELSNYICMGGKGASTLAAPNGHYILSRGGNGHRYIPGANLGTSPALPGDEAAGAADLDNRFRKRTHSAGTSPTISHQKTPSQSSVASIEEYTEMMPAAYPPGGGSGGRLPGYRHSAFVPTHSYPEEGLEMHHLERRGGHHRPDTSNLHTDDGYMPMSPGVAPVPSNRKGNGDYMPMSPKSVSAPQQIINPIRRHPQRVDPNGYMMMSPSGSCSPDIGGGSSSSSSISAAPSGSSYGKPWTNGVGGHHTHALPHAKPPVESGGGKLLPCTGDYMNMSPVGDSNTSSPSECYYGPEDPQHKPVLSYYSLPRSFKHTQRPGEPEEGARHQHLRLSSSSGRLRYTATAEDSSSSTSSDSLGGGYCGARPESSLTHPHHHVLQPHLPRKVDTAAQTNSRLARPTRLSLGDPKASTLPRVREQQQQQQSSLHPPEPKSPGEYVNIEFGSGQPGYLAGPATSRSSPSVRCPPQLHPAPREETGSEEYMNMDLGPGRRATWQESGGVELGRIGPAPPGSATVCRPTRSVPNSRGDYMTMQIGCPRQSYVDTSPVAPVSYADMRTGIAAEKASLPRPTGAAPPPSSTASSSASVTPQGATAEQATHSSLLGGPQGPGGMSAFTRVNLSPNHNQSAKVIRADTQGCRRRHSSETFSAPTRAGNTVPFGAGAAVGGSGGGGGGGSEDVKRHSSASFENVWLRPGDLGGVSKESAPVCGAAGGLEKSLNYIDLDLAKEHSQDCPSQQQSLPPPPPHQPLGSNEGNSPRRSSEDLSNYASISFQKQPEDRQ
As to B2, the Kd in assay [1] is 0.286 pM. Moreover, the koff in assay [2] came out at 3.92e-08 s⁻¹.
